From IntAct's records for PubMed 29039417

B1: BBSome complex member BBS2 (Homo sapiens), Q9BXC9 (parent)
chain: MLLPVFTLKLRHKISPRMVAIGRYDGTHPCLAAATQTGKVFIHNPHTRNQHVSASRVFQSPLESDVSLLSINQAVSCLTAGVLNPELGYDALLVGTQTNLLAYDVYNNSDLFYREVADGANAIVLGTLGDISSPLAIIGGNCALQGFNHEGSDLFWTVTGDNVNSLALCDFDGDGKKELLVGSEDFDIRVFKEDEIVAEMTETEIVTSLCPMYGSRFGYALSNGTVGVYDKTSRYWRIKSKNHAMSIHAFDLNSDGVNELITGWSNGKVDARSDRTGEVIFKDNFSSAIAGVVEGDYRMDGHIQLICCSVDGEIRGYLPGTAEMRGNLMDTSAEQDLIRELSQKKQNLLLELRNYEENAKAELASPLNEADGHRGIIPANTRLHTTLSVSLGNETQTAHTELRISTSNDTIIRAVLIFAEGIFTGESHVVHPSIHNLSSSICIPIVPPKDVPVDLHLKAFVGYRSSTQFHVFESTRQLPRFSMYALTSLDPASEPISYVNFTIAERAQRVVVWLGQNFLLPEDTHIQNAPFQVCFTSLRNGGHLHIKIKLSGEITINTDDIDLAGDIIQSMASFFAIEDLQVEADFPVYFEELRKVLVKVDEYHSVHQKLSADMADHSNLIRSLLVGAEDARLMRDMKTMKSRYMELYDLNRDLLNGYKIRCNNHTELLGNLKAVNQAIQRAGRLRVGKPKNQVITACRDAIRSNNINTLFKIMRVGTASS
partner: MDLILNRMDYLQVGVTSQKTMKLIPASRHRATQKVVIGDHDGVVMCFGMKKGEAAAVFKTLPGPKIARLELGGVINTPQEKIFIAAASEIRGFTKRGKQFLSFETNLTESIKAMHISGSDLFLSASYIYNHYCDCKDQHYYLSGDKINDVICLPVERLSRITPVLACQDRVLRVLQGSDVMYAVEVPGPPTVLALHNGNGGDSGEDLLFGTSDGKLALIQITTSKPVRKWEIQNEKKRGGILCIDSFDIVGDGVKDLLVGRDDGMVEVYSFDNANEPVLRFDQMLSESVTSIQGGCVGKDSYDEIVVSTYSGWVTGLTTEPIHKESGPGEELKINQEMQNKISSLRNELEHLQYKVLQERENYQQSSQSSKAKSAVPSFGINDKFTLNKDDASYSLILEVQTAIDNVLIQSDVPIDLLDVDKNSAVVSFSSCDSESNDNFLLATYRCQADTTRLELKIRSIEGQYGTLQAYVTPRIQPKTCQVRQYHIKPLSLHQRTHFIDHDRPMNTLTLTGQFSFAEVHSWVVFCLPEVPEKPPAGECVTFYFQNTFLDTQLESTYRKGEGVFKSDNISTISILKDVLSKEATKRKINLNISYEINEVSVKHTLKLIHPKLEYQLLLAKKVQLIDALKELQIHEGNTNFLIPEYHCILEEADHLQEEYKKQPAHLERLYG

Variants of: B1
Conditions: with BBS7, Q8IWZ6-2

Row | effect of a mutation on the interaction | Variant
1 | with no effect | R413E
2 | with no effect | R413A
3 | with no effect | R413K
4 | with no effect | A379K
5 | with no effect | A379E
6 | with no effect | T386A
7 | with no effect | T386E
8 | with no effect | T386K
9 | disrupting interaction strength | I376F
10 | with no effect | I376K
11 | with no effect | I376E
12 | with no effect | I376A
13 | with no effect | L367E
14 | with no effect | L367K
15 | with no effect | L367A
16 | disrupting interaction strength | L383A
17 | with no effect | L383K
18 | disrupting interaction strength | L383E
19 | with no effect | P378E
20 | with no effect | P378A
21 | with no effect | P378K
22 | with no effect | A398K
23 | with no effect | A398E
24 | with no effect | T381K
25 | with no effect | T381E
26 | with no effect | T381A

Row | effect of a mutation on the interaction | Variant
27 | with no effect | A364E
28 | with no effect | A364K
29 | with no effect | Q396E
30 | with no effect | Q396A
31 | with no effect | Q396K
32 | with no effect | G372K
33 | with no effect | G372A
34 | with no effect | G372E
35 | with no effect | I377K
36 | with no effect | I377A
37 | with no effect | I377E
38 | disrupting interaction strength | I377R
39 | with no effect | D409K
40 | with no effect | D409E
41 | with no effect | D409A
42 | with no effect | T410A
43 | with no effect | T410E
44 | with no effect | T410K
45 | with no effect | A414K
46 | with no effect | A414E
47 | with no effect | I412K
48 | disrupting interaction strength | I412R
49 | with no effect | I412E
50 | with no effect | I412A
51 | with no effect | E401A
52 | with no effect | E401K

Row | effect of a mutation on the interaction | Variant
53 | with no effect | A361E
54 | with no effect | A361K
55 | with no effect | T395E
56 | with no effect | T395K
57 | with no effect | T395A
58 | with no effect | S390E
59 | with no effect | S390A
60 | with no effect | S390K
61 | with no effect | E362K
62 | with no effect | E362A
63 | with no effect | E394A
64 | with no effect | E394K
65 | with no effect | T406A
66 | with no effect | T406E
67 | with no effect | T406K
68 | with no effect | L416A
69 | with no effect | L416K
70 | with no effect | L416E
71 | with no effect | E369A
72 | with no effect | E369K
73 | with no effect | E357K
74 | with no effect | E357A
75 | with no effect | F418A
76 | with no effect | F418E
77 | with no effect | I411A
78 | with no effect | I411K

Row | effect of a mutation on the interaction | Variant
79 | with no effect | I411E
80 | with no effect | N393A
81 | with no effect | N393K
82 | with no effect | N393E
83 | with no effect | S365K
84 | with no effect | S365E
85 | with no effect | S365A
86 | with no effect | N358A
87 | with no effect | N358E
88 | with no effect | N358K
89 | with no effect | I404E
90 | disrupting interaction strength | I404K
91 | with no effect | I404A
92 | with no effect | K360E
93 | disrupting interaction strength | K360P
94 | with no effect | K360A
95 | with no effect | H399K
96 | with no effect | H399A
97 | with no effect | H399E
98 | with no effect | R403E
99 | with no effect | R403K
100 | with no effect | R403A
101 | with no effect | H373E
102 | with no effect | H373A
103 | with no effect | H373K
104 | with no effect | S407A

Row | effect of a mutation on the interaction | Variant
105 | with no effect | S407K
106 | with no effect | S407E
107 | with no effect | I417K
108 | with no effect | I417A
109 | with no effect | I417E
110 | with no effect | R374K
111 | with no effect | R374E
112 | with no effect | R374A
113 | with no effect | A370E
114 | with no effect | A370K
115 | disrupting interaction strength | N408S
116 | with no effect | N408E
117 | with no effect | N408A
118 | with no effect | N408K
119 | with no effect | G392E
120 | with no effect | G392A
121 | with no effect | G392K
122 | with no effect | N380A
123 | disrupting interaction strength | N380E
124 | with no effect | N380K
125 | with no effect | T397A
126 | with no effect | T397K
127 | with no effect | T397E
128 | with no effect | T385A
129 | disrupting interaction strength | T385E
130 | with no effect | T385K

Row | effect of a mutation on the interaction | Variant
131 | with no effect | S405A
132 | with no effect | S405E
133 | with no effect | S405K
134 | with no effect | P366A
135 | with no effect | P366K
136 | with no effect | P366E
137 | disrupting interaction strength | L387K
138 | with no effect | L387E
139 | with no effect | L387A
140 | with no effect | D371E
141 | with no effect | D371A
142 | with no effect | D371K
143 | with no effect | V389A
144 | disrupting interaction strength | V389K
145 | with no effect | V389E
146 | with no effect | S388A
147 | with no effect | S388K
148 | with no effect | S388E
149 | with no effect | A359E
150 | with no effect | A359K
151 | with no effect | R382K
152 | with no effect | R382A
153 | with no effect | R382E
154 | with no effect | V415A
155 | with no effect | V415K
156 | with no effect | V415E

Row | effect of a mutation on the interaction | Variant
157 | with no effect | G375E
158 | with no effect | G375A
159 | with no effect | G375K
160 | with no effect | L363A
161 | with no effect | L363E
162 | with no effect | L363K
163 | with no effect | T400E
164 | with no effect | T400K
165 | with no effect | T400A
166 | disrupting interaction strength | L402A
167 | with no effect | L402E
168 | disrupting interaction strength | L402K
169 | disrupting interaction strength | L402C
170 | with no effect | L391E
171 | with no effect | L391K
172 | with no effect | L391A
173 | with no effect | N368A
174 | with no effect | N368E
175 | with no effect | N368K
176 | disrupting interaction strength | H384P
177 | with no effect | H384E
178 | with no effect | H384K
179 | with no effect | H384A
